From the supplement of paper PMC9112550, “Optimization of the antimicrobial peptide Bac7 by deep mutational scanning” (BMC Biology, 2022)

System: Escherichia coli TOP10
Assay: shrunken log2 fold change of peptide-encoding DNA abundance (4.5 h post-induction vs induction); higher = less antimicrobial activity (less host growth inhibition)
Conditions: time post-induction: 4.5 h; library: site-saturation at positions 5, 18, 19, 20
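Note: peptides expressed intracellularly from a pBAD plasmid library in pooled LB shake-flask culture, induced with 0.3% L-arabinose, DNA abundance read by NGS, three biological replicates, DESeq2 with apeglm shrinkage.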

RRIRWRPPRLPRPRPRPLWLPRP
shrunken log2 fold change: 0.202

RRIRWRPPRLPRPRPRPMATPRP
shrunken log2 fold change: 0.26

RRIRWRPPRLPRPRPRPMELPRP
shrunken log2 fold change: 1.2

RRIRWRPPRLPRPRPRPMFCPRP
shrunken log2 fold change: -0.0733

RRIRWRPPRLPRPRPRPMGDPRP
shrunken log2 fold change: 0.676

RRIRWRPPRLPRPRPRPMHMPRP
shrunken log2 fold change: -0.287

RRIRWRPPRLPRPRPRPMKRPRP
shrunken log2 fold change: 0.0121

RRIRWRPPRLPRPRPRPMLEPRP
shrunken log2 fold change: -0.0685

RRIRWRPPRLPRPRPRPMMKPRP
shrunken log2 fold change: 0.155

RRIRWRPPRLPRPRPRPMMYPRP
shrunken log2 fold change: -0.339

RRIRWRPPRLPRPRPRPMNDPRP
shrunken log2 fold change: -0.0845

RRIRWRPPRLPRPRPRPMPAPRP
shrunken log2 fold change: 0.995

RRIRWRPPRLPRPRPRPMPDPRP
shrunken log2 fold change: 0.173

RRIRWRPPRLPRPRPRPMPVPRP
shrunken log2 fold change: 0.346

RRIRWRPPRLPRPRPRPMQMPRP
shrunken log2 fold change: 1.53

RRIRWRPPRLPRPRPRPMQQPRP
shrunken log2 fold change: 0.056

RRIRWRPPRLPRPRPRPMTHPRP
shrunken log2 fold change: -0.0884

RRIRWRPPRLPRPRPRPMTWPRP
shrunken log2 fold change: 2.14

RRIRWRPPRLPRPRPRPMVKPRP
shrunken log2 fold change: 0.17

RRIRWRPPRLPRPRPRPMVSPRP
shrunken log2 fold change: -0.0339

RRIRWRPPRLPRPRPRPMVYPRP
shrunken log2 fold change: 0.0222

RRIRWRPPRLPRPRPRPMWGPRP
shrunken log2 fold change: 0.117

RRIRWRPPRLPRPRPRPMYAPRP
shrunken log2 fold change: 0.325

RRIRWRPPRLPRPRPRPMYSPRP
shrunken log2 fold change: -0.612

RRIRWRPPRLPRPRPRPMYWPRP
shrunken log2 fold change: 0.0085

RRIRWRPPRLPRPRPRPNAWPRP
shrunken log2 fold change: 0.826

RRIRWRPPRLPRPRPRPNAYPRP
shrunken log2 fold change: -0.214

RRIRWRPPRLPRPRPRPNGHPRP
shrunken log2 fold change: -0.0518

RRIRWRPPRLPRPRPRPNIQPRP
shrunken log2 fold change: -0.0736

RRIRWRPPRLPRPRPRPNLAPRP
shrunken log2 fold change: 0.0306

RRIRWRPPRLPRPRPRPNMAPRP
shrunken log2 fold change: 0.345

RRIRWRPPRLPRPRPRPNMKPRP
shrunken log2 fold change: -0.0784

RRIRWRPPRLPRPRPRPNNIPRP
shrunken log2 fold change: -0.779

RRIRWRPPRLPRPRPRPNNNPRP
shrunken log2 fold change: -0.514

RRIRWRPPRLPRPRPRPNPAPRP
shrunken log2 fold change: 0.098

RRIRWRPPRLPRPRPRPNQWPRP
shrunken log2 fold change: 0.223

RRIRWRPPRLPRPRPRPNQYPRP
shrunken log2 fold change: -0.113

RRIRWRPPRLPRPRPRPNRSPRP
shrunken log2 fold change: -0.0777

RRIRWRPPRLPRPRPRPNTVPRP
shrunken log2 fold change: 0.178

RRIRWRPPRLPRPRPRPNVAPRP
shrunken log2 fold change: 0.088

RRIRWRPPRLPRPRPRPNYEPRP
shrunken log2 fold change: -0.222

RRIRWRPPRLPRPRPRPNYLPRP
shrunken log2 fold change: -1

RRIRWRPPRLPRPRPRPPDKPRP
shrunken log2 fold change: 0.423

RRIRWRPPRLPRPRPRPPDTPRP
shrunken log2 fold change: 0.525

RRIRWRPPRLPRPRPRPPDWPRP
shrunken log2 fold change: 1.19

RRIRWRPPRLPRPRPRPPEWPRP
shrunken log2 fold change: 0.36

RRIRWRPPRLPRPRPRPPFPPRP
shrunken log2 fold change: 0.37

RRIRWRPPRLPRPRPRPPGAPRP
shrunken log2 fold change: 0.904

RRIRWRPPRLPRPRPRPPGEPRP
shrunken log2 fold change: 0.625

RRIRWRPPRLPRPRPRPPGHPRP
shrunken log2 fold change: 0.403

RRIRWRPPRLPRPRPRPPGKPRP
shrunken log2 fold change: 0.214

RRIRWRPPRLPRPRPRPPIWPRP
shrunken log2 fold change: 0.628

RRIRWRPPRLPRPRPRPPIYPRP
shrunken log2 fold change: 0.0337

RRIRWRPPRLPRPRPRPPLCPRP
shrunken log2 fold change: 0.668

RRIRWRPPRLPRPRPRPPLSPRP
shrunken log2 fold change: 0.271

RRIRWRPPRLPRPRPRPPMCPRP
shrunken log2 fold change: 0.252

RRIRWRPPRLPRPRPRPPMLPRP
shrunken log2 fold change: 0.0923

RRIRWRPPRLPRPRPRPPMWPRP
shrunken log2 fold change: 0.108

RRIRWRPPRLPRPRPRPPNEPRP
shrunken log2 fold change: 0.424

RRIRWRPPRLPRPRPRPPNFPRP
shrunken log2 fold change: 0.015

RRIRWRPPRLPRPRPRPPPSPRP
shrunken log2 fold change: 0.794

RRIRWRPPRLPRPRPRPPQAPRP
shrunken log2 fold change: 0.733

RRIRWRPPRLPRPRPRPPQDPRP
shrunken log2 fold change: 0.267

RRIRWRPPRLPRPRPRPPRLPRP
shrunken log2 fold change: 0.526

RRIRWRPPRLPRPRPRPPRRPRP
shrunken log2 fold change: 0.642

RRIRWRPPRLPRPRPRPPSEPRP
shrunken log2 fold change: 0.456

RRIRWRPPRLPRPRPRPPSFPRP
shrunken log2 fold change: -0.0861

RRIRWRPPRLPRPRPRPPTCPRP
shrunken log2 fold change: 0.614

RRIRWRPPRLPRPRPRPPTGPRP
shrunken log2 fold change: 0.23

RRIRWRPPRLPRPRPRPPTRPRP
shrunken log2 fold change: 0.578

RRIRWRPPRLPRPRPRPPVSPRP
shrunken log2 fold change: 0.289

RRIRWRPPRLPRPRPRPPWEPRP
shrunken log2 fold change: 0.541

RRIRWRPPRLPRPRPRPPWWPRP
shrunken log2 fold change: 0.674

RRIRWRPPRLPRPRPRPPYCPRP
shrunken log2 fold change: -0.0779

RRIRWRPPRLPRPRPRPQAPPRP
shrunken log2 fold change: -0.164

RRIRWRPPRLPRPRPRPQCLPRP
shrunken log2 fold change: -0.073

RRIRWRPPRLPRPRPRPQCRPRP
shrunken log2 fold change: -0.00115

RRIRWRPPRLPRPRPRPQDQPRP
shrunken log2 fold change: 0.0586

RRIRWRPPRLPRPRPRPQDYPRP
shrunken log2 fold change: -0.406

RRIRWRPPRLPRPRPRPQGVPRP
shrunken log2 fold change: 0.198

RRIRWRPPRLPRPRPRPQHDPRP
shrunken log2 fold change: 0.202

RRIRWRPPRLPRPRPRPQHIPRP
shrunken log2 fold change: -0.736

RRIRWRPPRLPRPRPRPQIRPRP
shrunken log2 fold change: -0.0767

RRIRWRPPRLPRPRPRPQKPPRP
shrunken log2 fold change: 0.0546

RRIRWRPPRLPRPRPRPQMHPRP
shrunken log2 fold change: 0.0794

RRIRWRPPRLPRPRPRPQMWPRP
shrunken log2 fold change: 0.369

RRIRWRPPRLPRPRPRPQNGPRP
shrunken log2 fold change: 0.00668

RRIRWRPPRLPRPRPRPQNMPRP
shrunken log2 fold change: -0.0938

RRIRWRPPRLPRPRPRPQNPPRP
shrunken log2 fold change: -0.0448

RRIRWRPPRLPRPRPRPQPFPRP
shrunken log2 fold change: 0.133

RRIRWRPPRLPRPRPRPQRAPRP
shrunken log2 fold change: 0.66

RRIRWRPPRLPRPRPRPQRNPRP
shrunken log2 fold change: 0.0121

RRIRWRPPRLPRPRPRPQRRPRP
shrunken log2 fold change: 0.358

RRIRWRPPRLPRPRPRPQTFPRP
shrunken log2 fold change: -0.293

RRIRWRPPRLPRPRPRPQVLPRP
shrunken log2 fold change: -0.0271

RRIRWRPPRLPRPRPRPQWDPRP
shrunken log2 fold change: -0.0065

RRIRWRPPRLPRPRPRPQWWPRP
shrunken log2 fold change: 0.00856

RRIRWRPPRLPRPRPRPRAEPRP
shrunken log2 fold change: 0.621

RRIRWRPPRLPRPRPRPRCIPRP
shrunken log2 fold change: -0.036

RRIRWRPPRLPRPRPRPRCYPRP
shrunken log2 fold change: -0.0698

RRIRWRPPRLPRPRPRPRDEPRP
shrunken log2 fold change: 0.0548

RRIRWRPPRLPRPRPRPRDRPRP
shrunken log2 fold change: 0.909

RRIRWRPPRLPRPRPRPRFGPRP
shrunken log2 fold change: 0.395

RRIRWRPPRLPRPRPRPRGEPRP
shrunken log2 fold change: 0.397

RRIRWRPPRLPRPRPRPRHDPRP
shrunken log2 fold change: 0.107

RRIRWRPPRLPRPRPRPRHHPRP
shrunken log2 fold change: -0.0574

RRIRWRPPRLPRPRPRPRINPRP
shrunken log2 fold change: 0.0839

RRIRWRPPRLPRPRPRPRLSPRP
shrunken log2 fold change: 0.154

RRIRWRPPRLPRPRPRPRMHPRP
shrunken log2 fold change: 0.485

RRIRWRPPRLPRPRPRPRMKPRP
shrunken log2 fold change: 0.158

RRIRWRPPRLPRPRPRPRMLPRP
shrunken log2 fold change: 0.281

RRIRWRPPRLPRPRPRPRMWPRP
shrunken log2 fold change: 0.36

RRIRWRPPRLPRPRPRPRNRPRP
shrunken log2 fold change: -0.0206

RRIRWRPPRLPRPRPRPRPHPRP
shrunken log2 fold change: 0.408

RRIRWRPPRLPRPRPRPRPNPRP
shrunken log2 fold change: 0.273

RRIRWRPPRLPRPRPRPRPQPRP
shrunken log2 fold change: 0.588

RRIRWRPPRLPRPRPRPRPVPRP
shrunken log2 fold change: 0.728

RRIRWRPPRLPRPRPRPRQSPRP
shrunken log2 fold change: 0.236

RRIRWRPPRLPRPRPRPRRAPRP
shrunken log2 fold change: 0.737

RRIRWRPPRLPRPRPRPRRGPRP
shrunken log2 fold change: 0.528

RRIRWRPPRLPRPRPRPRRPPRP
shrunken log2 fold change: 0.508

RRIRWRPPRLPRPRPRPRRTPRP
shrunken log2 fold change: 0.0983

RRIRWRPPRLPRPRPRPRRVPRP
shrunken log2 fold change: 0.122

RRIRWRPPRLPRPRPRPRRYPRP
shrunken log2 fold change: 0.18

RRIRWRPPRLPRPRPRPRSGPRP
shrunken log2 fold change: 0.345

RRIRWRPPRLPRPRPRPRSSPRP
shrunken log2 fold change: 0.246

RRIRWRPPRLPRPRPRPRTDPRP
shrunken log2 fold change: 0.342

RRIRWRPPRLPRPRPRPRTPPRP
shrunken log2 fold change: 0.559

RRIRWRPPRLPRPRPRPRVRPRP
shrunken log2 fold change: 0.563

RRIRWRPPRLPRPRPRPRVVPRP
shrunken log2 fold change: 0.655

RRIRWRPPRLPRPRPRPRWIPRP
shrunken log2 fold change: 0.211

RRIRWRPPRLPRPRPRPRWLPRP
shrunken log2 fold change: 0.224

RRIRWRPPRLPRPRPRPRWMPRP
shrunken log2 fold change: 0.1

RRIRWRPPRLPRPRPRPRYGPRP
shrunken log2 fold change: 0.134

RRIRWRPPRLPRPRPRPRYHPRP
shrunken log2 fold change: -0.198

RRIRWRPPRLPRPRPRPRYLPRP
shrunken log2 fold change: -0.382

RRIRWRPPRLPRPRPRPSALPRP
shrunken log2 fold change: 0.678

RRIRWRPPRLPRPRPRPSAWPRP
shrunken log2 fold change: 0.319

RRIRWRPPRLPRPRPRPSCCPRP
shrunken log2 fold change: 0.174

RRIRWRPPRLPRPRPRPSEQPRP
shrunken log2 fold change: -0.247

RRIRWRPPRLPRPRPRPSFHPRP
shrunken log2 fold change: -0.458

RRIRWRPPRLPRPRPRPSFTPRP
shrunken log2 fold change: -0.397

RRIRWRPPRLPRPRPRPSGEPRP
shrunken log2 fold change: 0.138

RRIRWRPPRLPRPRPRPSGMPRP
shrunken log2 fold change: 0.104

RRIRWRPPRLPRPRPRPSGRPRP
shrunken log2 fold change: 0.201

RRIRWRPPRLPRPRPRPSHAPRP
shrunken log2 fold change: -0.0866

RRIRWRPPRLPRPRPRPSHHPRP
shrunken log2 fold change: -0.3

RRIRWRPPRLPRPRPRPSHTPRP
shrunken log2 fold change: 0.0847

RRIRWRPPRLPRPRPRPSIGPRP
shrunken log2 fold change: -0.175

RRIRWRPPRLPRPRPRPSLNPRP
shrunken log2 fold change: -0.0829
